These results are taken from article PMC2765501.

The target of this assay is C22-pT peptide (HIV-1 gp41 MPER residues 662-683 with a C-terminal GCN4-pT isoleucine-zipper motif) (HIV-1). The assay is described as follows: AUC.

One may read the stoichiometry N as a count of units in the complex or per binding partner. As for “C22-pT peptide (HIV-1 gp41 MPER residues 662-683 with a C-terminal GCN4-pT isoleucine-zipper motif)”, the stoichiometry N came out at 3.
